Reference: patent publication US20250346673A1 (DUALITY BIOLOGICS SUZHOU, published 2025)
Numbering of substitutions follows the chain as printed.

T1: human FcγRIIA (R167) (human, UniProt P12318 36-218, limits assumed, biotinylated (site not stated))
T1 construct: also called Fe γ RIIA(R167); Fcγ RIJA (R167)
T1 sequence (looked up): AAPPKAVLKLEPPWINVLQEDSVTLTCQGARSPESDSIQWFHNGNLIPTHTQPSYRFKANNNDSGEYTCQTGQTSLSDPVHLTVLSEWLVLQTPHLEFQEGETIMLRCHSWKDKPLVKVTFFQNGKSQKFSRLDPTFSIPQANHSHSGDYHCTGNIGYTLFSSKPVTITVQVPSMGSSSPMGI

T2: Recombinant Human BDCA2 (human, UniProt Q8WTT0 45-213, limits assumed)
T2 construct: also called hBDCA2 (SPR analyte); human BDCA2 antigen
T2 sequence (looked up): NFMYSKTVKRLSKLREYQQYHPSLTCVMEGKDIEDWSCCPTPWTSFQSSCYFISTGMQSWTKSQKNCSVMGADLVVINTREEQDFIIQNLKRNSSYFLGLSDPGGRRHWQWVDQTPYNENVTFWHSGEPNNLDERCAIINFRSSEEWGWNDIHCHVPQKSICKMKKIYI

T3: human BDCA2 (human, UniProt Q8WTT0 1-213)
T3 construct: whole, on cells; also called hBDCA2; Blood dendritic cell antigen 2
T3 sequence (looked up): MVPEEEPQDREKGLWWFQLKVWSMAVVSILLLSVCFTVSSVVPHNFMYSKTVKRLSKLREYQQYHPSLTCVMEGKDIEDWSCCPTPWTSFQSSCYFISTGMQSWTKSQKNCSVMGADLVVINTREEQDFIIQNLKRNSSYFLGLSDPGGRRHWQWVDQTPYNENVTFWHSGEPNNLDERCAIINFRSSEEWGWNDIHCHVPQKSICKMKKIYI

T4: cynomolgus BDCA2 (cynomolgus monkey, UniProt A0A2K5UWP4 1-212)
T4 construct: whole, on cells; also called Cyno BDCA2; cynoBDCA2
T4 sequence: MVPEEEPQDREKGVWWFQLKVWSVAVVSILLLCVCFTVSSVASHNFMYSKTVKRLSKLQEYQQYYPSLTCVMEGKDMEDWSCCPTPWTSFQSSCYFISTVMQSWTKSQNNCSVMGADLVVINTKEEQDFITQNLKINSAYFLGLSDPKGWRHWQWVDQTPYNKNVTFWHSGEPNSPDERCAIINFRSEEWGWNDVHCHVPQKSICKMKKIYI

T5: human FcγRIIA (H167) (human, UniProt P12318 36-218, limits assumed, biotinylated (site not stated))
T5 construct: also called Fey RIIA (H167)
T5 sequence (looked up): T1 sequence (looked up) with R132H

B1: Hu033-03 (antibody, human IgG1, kappa)
heavy: not shown
light: DIVLTQSPASLAVSPGQRATITCRASESVSFRTSHLMHWYQQKPGQPPKLLIYGASNLESGVPARFSGSGSETDFTLTINPVEAEDTANYFCQQSIEDPPTFGGGTKVEIKRTVAAPSVFIFPPSDEQLKSGTASVVCLLNNFYPREAKVQWKVDNALQSGNSQESVTEQDSKDSTYSLSSTLTLSKADYEKHKVYACEVTHQGLSSPVTKSFNRGEC
notes: Humanized IgG1, wild-type Fc; also called Hu033-03(BM3)
B2: Hu033-20 (antibody, human IgG1, kappa)
heavy: not shown
light: DIVMTQSPDSLAVSLGERATINCRASESVSFRTSHLMHWYQQKPGQPPKLLIYGASNLESGVPDRFSGSGSGTDFTLTISSLQAEDVAVYYCQQSIEDPPTFGGGTKVEIKRTVAAPSVFIFPPSDEQLKSGTASVVCLLNNFYPREAKVQWKVDNALQSGNSQESVTEQDSKDSTYSLSSTLTLSKADYEKHKVYACEVTHQGLSSPVTKSFNRGEC
notes: Humanized IgG1, wild-type Fc; also called Hu033-20(BM3)
B3: Hu033-02 (antibody, IgG1, V domains shown)
VH: EVQLVESGGGLVKPGGSLRLSCAASGFTFSSYGMSWVRQAPGKGLEWVSTISSGDSYTYYPDSVKGRFTISRDNAKNSLYLQMNSLRAEDTAVYYCARQIYYDYAYYFDFWGQGTTVTVSS
VL: DIVLTQSPASLAVSPGQRATITCRASESVSFRTSHLMHWYQQKPGQPPKLLIYGASNLESGVPARFSGSGSETDFTLTINPVEAEDTANYYCQQSIEDPPTFGGGTKVEIK
notes: Humanized IgG1; also called Hu033-02(BM2)
B4: Hu033-10 (antibody, IgG1, V domains shown)
VH: B3 VH with S30R, G44R
VL: B3 VL
notes: Humanized IgG1; also called Hu033-10(BM4)
B5: Hu033-04 (antibody, IgG1, V domains shown)
VH: B3 VH
VL: DIVMTQSPDSLAVSLGERATINCRASESVSFRTSHLMHWYQQKPGQPPKLLIYGASNLESGVPDRFSGSGSGTDFTLTISSLQAEDVAVYYCQQSIEDPPTFGGGTKVEIK
notes: Humanized IgG1; also called Hu033-04(BM0)
B6: Hu033-16 (antibody, IgG1, V domains shown)
VH: B3 VH with S30R, G44R
VL: EIVLTQSPATLSLSPGERATLSCRASESVSFRTSHLMHWYQQKPGQAPRLLIYGASNLESGIPARFSGSGSETDFTLTISRLEPEDFAVYFCQQSIEDPPTFGGGTKVEIK
notes: Humanized IgG1; also called Hu033-16(BM4)
B7: Hu033-12 (antibody, IgG1, V domains shown)
VH: B3 VH with S30R, G44R
VL: B5 VL
notes: Humanized IgG1; also called Hu033-12(BM2)
B8: Hu033-13 (antibody, IgG1, V domains shown)
VH: B3 VH with S30R, G44R
VL: B5 VL with M4L, Y91F
notes: Humanized IgG1; also called Hu033-13(BM4)
B9: Hu033-08 (antibody, IgG1, V domains shown)
VH: B3 VH
VL: B6 VL
notes: Humanized IgG1; also called Hu033-08(BM2)
B10: Hu033-23 (antibody, IgG1, V domains shown)
VH: B3 VH with S30R, G44R, R87K
VL: B6 VL with E72G, F91Y
notes: Humanized IgG1; also called Hu033-23(BM3)
B11: Hu033-15 (antibody, IgG1, V domains shown)
VH: B3 VH with S30R, G44R
VL: B6 VL with E72G, F91Y
notes: Humanized IgG1; also called Hu033-15(BM2)
B12: Hu033-06 (antibody, IgG1, V domains shown)
VH: B3 VH
VL: B5 VL with M4L, G72E, S81P, Y91F
notes: Humanized IgG1; also called Hu033-06(BM3)

Each binder was assayed against T1, human FcγRIIA (R167) (assay: SPR (BIAcore 8K), biotinylated FcγRIIA (R167) on SA chip, antibody as analyte, 1:1 binding).
Protocol: (§1) Antibody kinetics or affinity parameters were measured using BIAcore 8K and freshly fixed biotinylated human Fe γ RIIA(R167)/Fc γ RIIA (H167) SA chips. The experiment was run at 25° C. with a running buffer of 1×HBS-EP+(10 mM HEPES pH 7.4, 150 mM NaCl, 3 mM EDTA, 0.05% Surfactant P20). […] The binding and dissociation times of the antibody were 60 and 90 seconds, respectively. Two zero concentration samples are used to remove background signals. The sample was injected in a multi cycle manner, the analyte can be fully dissociated from the chip surface at the end of each cycle, and no regeneration step was applied. Data analysis was perform using Biacore Insight Evaluation Software (Version 2.0.15.12933). After deducting the reference channel (flow cell 1) and two zero concentration signals, affinity analysis was performed using a 1:1 binding model or steady-state model for curve fitting and calculation of kinetic parameters.

Kd | koff | kon | Binder
510 nM | 0.782 s⁻¹ | 1.53e+06 M⁻¹ s⁻¹ | B1
578 nM | 0.838 s⁻¹ | 1.45e+06 M⁻¹ s⁻¹ | B2

The binders below were run against T2, Recombinant Human BDCA2 (assay: SPR (BIAcore), antibody captured by anti-human IgG (Fc), hBDCA2 as analyte, 1:1 model).
Protocol: Then 1 M ethanolamine was injected at 10 μL/min flow rate for 420 seconds, and the excess active carboxyl groups on chip were blocked. The humanized antibodies were injected into a detection channel flow cell at flow rate of 10 μL/min for 60 s for capture after diluting to 1 μg/mL using running buffer. […] The sample hBDCA2 to be tested of each concentration gradient was injected into the detection channel at 30 μL/min flow rate, two samples at 0 concentration were used to remove background signal. The binding and dissociation times between antigen and antibody were 180 and 400 sec, respectively. An analysis of data was performed using Biacore Insight Evaluation Software (Version 2.0. 15.12933). A 1:1 binding model was selected for curve fitting and kinetic parameters were calculated after subtraction of signal of the reference channel (flow cell 1) and at 0 concentration.

Kd | koff | kon | Binder
0.236 nM | 0.000136 s⁻¹ | 576000 M⁻¹ s⁻¹ | B1
0.268 nM | 0.000149 s⁻¹ | 556000 M⁻¹ s⁻¹ | B2
0.239 nM | 0.000169 s⁻¹ | 707000 M⁻¹ s⁻¹ | B3
0.2 nM | 0.000118 s⁻¹ | 589000 M⁻¹ s⁻¹ | B4
0.323 nM | 0.000193 s⁻¹ | 598000 M⁻¹ s⁻¹ | B5
0.191 nM | 0.000108 s⁻¹ | 569000 M⁻¹ s⁻¹ | B6
0.283 nM | 0.000149 s⁻¹ | 527000 M⁻¹ s⁻¹ | B7
0.338 nM | 0.000153 s⁻¹ | 454000 M⁻¹ s⁻¹ | B8
0.229 nM | 0.000169 s⁻¹ | 740000 M⁻¹ s⁻¹ | B9
0.444 nM | 0.000207 s⁻¹ | 466000 M⁻¹ s⁻¹ | B10
0.467 nM | 0.000227 s⁻¹ | 487000 M⁻¹ s⁻¹ | B11
0.17 nM | 0.000125 s⁻¹ | 733000 M⁻¹ s⁻¹ | B12

These binders were tested against T3, human BDCA2 (assay: FACS, CHOK1-humanBDCA2 cells).
Protocol: (§2) The cells were recovered and resuspended to 2×10⁶/mL with FACS buffer (PBS+2% FBS). The resuspended cells were added to 3799 cell plates at 100 μL/well, and the supernatant was discarded after centrifugation at 300 g. […] The cells were incubated at 4° C. for 1 h. The incubated cells were centrifuged at […] for 5 min and washed twice with FACS buffer. 100 μL Goat anti-Human IgG (H+L) Cross-Adsorbed Secondary Antibody, Alexa Fluor 488 (Sigma, A11013; 1:1000) secondary antibody was added, washed twice with FACS buffer after incubation at 4° C. for 1 h. The cells were resuspended with PBS, then the fluorescence signal of antibodies bound to cell surface was analyzed with FACS (BD FACS CantoTM II) instrument and curves were fitted with GraphPad Prism6 to calculate EC₅₀ values for antibodies binding to BDCA2 antigen.

EC50 | Binder
0.5 nM | B1
0.64 nM | B2
0.44 nM | B3
0.51 nM | B4
0.61 nM | B5
0.63 nM | B6
0.45 nM | B7
0.68 nM | B8
0.62 nM | B9
0.79 nM | B10
0.76 nM | B11
0.62 nM | B12

These binders were tested against T4, cynomolgus BDCA2 (assay: FACS, 293F-cynoBDCA2 cells).
Protocol: as §2

EC50 | Binder
1.4 nM | B1
1.22 nM | B2
1.2 nM | B3
1.27 nM | B4
1.33 nM | B5
1.37 nM | B6
1.07 nM | B7
1.13 nM | B8
1.53 nM | B9
1.24 nM | B10
1.27 nM | B11
1.41 nM | B12

The binders below were run against T5, human FcγRIIA (H167) (assay: SPR (BIAcore 8K), biotinylated FcγRIIA (H167) on SA chip, antibody as analyte, 1:1 binding).
Protocol: as §1

Kd | koff | kon | Binder
941 nM | 0.339 s⁻¹ | 361000 M⁻¹ s⁻¹ | B1
981 nM | 0.431 s⁻¹ | 439000 M⁻¹ s⁻¹ | B2

These binders were tested against T3, human BDCA2 (assay: cell-based or functional assay).

EC50 (nM), inhibition of CpG-A stimulated IFNα release from human PBMC | Binder
0.01 nM | B1
0.01 nM | B2
0.02 nM | B3
0.01 nM | B4
0.03 nM | B5
0.01 nM | B6
0.02 nM | B7
0.01 nM | B8
0.02 nM | B9
0.03 nM | B10
0.02 nM | B11
0.02 nM | B12
